Where a chain is given by its changes, count along the chain named. In names and notes the source's numbering stands. One block for each binder: values may come before it. Ends that are not written are not given here.
Columns and labels:
mutated human GLP-2R = biological target: T1, mutated human GLP-2R (human, UniProt O95838 1-553); assay: cell-based or functional assay
T1 chain: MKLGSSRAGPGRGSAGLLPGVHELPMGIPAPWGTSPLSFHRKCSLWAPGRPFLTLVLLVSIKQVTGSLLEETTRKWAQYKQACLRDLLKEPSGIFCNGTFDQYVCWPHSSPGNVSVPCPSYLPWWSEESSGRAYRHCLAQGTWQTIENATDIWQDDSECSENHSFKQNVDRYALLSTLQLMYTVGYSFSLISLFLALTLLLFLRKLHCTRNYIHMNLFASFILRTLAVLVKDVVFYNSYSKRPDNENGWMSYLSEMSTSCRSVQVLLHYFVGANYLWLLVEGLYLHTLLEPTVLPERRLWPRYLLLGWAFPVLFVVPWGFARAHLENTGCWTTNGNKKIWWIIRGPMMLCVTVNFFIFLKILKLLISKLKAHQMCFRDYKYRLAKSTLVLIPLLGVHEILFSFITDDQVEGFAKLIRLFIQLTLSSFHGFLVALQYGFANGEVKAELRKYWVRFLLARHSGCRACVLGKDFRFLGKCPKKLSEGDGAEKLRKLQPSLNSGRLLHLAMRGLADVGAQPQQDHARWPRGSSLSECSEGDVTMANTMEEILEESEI

[1] = biological target: mutated human GLP-2R (human) (UniProt O95838); assay: cell-based or functional assay

activity in the cAMP expression assay relative to wild type GLP-2 (mutated human GLP-2R): 2 fold less
Binder: HGDGSFSDEMNTILDGQAARDFINWLIQTKITD [GLP-2(A2G, N16G, L17Q)]

activity in the cAMP expression assay relative to wild type GLP-2 (mutated human GLP-2R): 3 fold less
Binder: HGDGSFSDEMNTILDNQAARDFINWLIQTKITD [GLP-2(A2G, L17Q)]

EC50 (nM), cAMP expression assay [1]: 40 nM
B1: A2G GLP-2 mimetibody linker length variant, SEQ ID NO: 6 (Fc fusion, not shown: a dimerising Fc or GST)
chain: HGDGSFSDEMNTILDNLAARDFINWLIQTKITDGGGGSCPPCP
modifications: cysteine pairing not given here; also: mimetibody: followed by CH2-CH3 domains not given here

EC50 (nM), cAMP expression assay [1]: 4.6 nM
B2: A2G GLP-2 mimetibody linker length variant, SEQ ID NO: 9 (Fc fusion, not shown: a dimerising Fc or GST)
chain: HGDGSFSDEMNTILDNLAARDFINWLIQTKITDGGGGSGGGGSGGGGSGGGGSCPPCP
modifications: cysteine pairing not given here; also: mimetibody: followed by CH2-CH3 domains not given here

EC50 (nM), cAMP expression assay [1]: 12.7 nM
B3: A2G GLP-2 mimetibody linker length variant, SEQ ID NO: 8 (Fc fusion, not shown: a dimerising Fc or GST)
chain: HGDGSFSDEMNTILDNLAARDFINWLIQTKITDGGGGSGGGGSGGGGSCPPCP
modifications: cysteine pairing not given here; also: mimetibody: followed by CH2-CH3 domains not given here

EC50 (nM), cAMP expression assay [1]: 2.1 nM
B4: A2G GLP-2 mimetibody linker length variant, SEQ ID NO: 10 (Fc fusion, not shown: a dimerising Fc or GST)
chain: HGDGSFSDEMNTILDNLAARDFINWLIQTKITDGGGGSGGGGSGGGGSGGGGSGGGGSCPPCP

EC50 (nM), cAMP expression assay [1]: 3.6 nM
B5: GLP-2 mimetibody Pro substitution variant, SEQ ID NO: 42 (Fc fusion, not shown: a dimerising Fc or GST)
chain: HGDGSFSDEMNTILDNLAARDFINWLIQTKITDGSGGGSGALVPVSSESKYGPPCPPCP

EC50 (nM), cAMP expression assay [1]: 5.8 nM
B6: GLP-2 mimetibody Pro substitution variant, SEQ ID NO: 45 (Fc fusion, not shown: a dimerising Fc or GST)
chain: B5 chain with P44A, Y51P

EC50 (nM), cAMP expression assay [1]: 7.7 nM
B7: GLP-2 mimetibody Pro substitution variant, SEQ ID NO: 44 (Fc fusion, not shown: a dimerising Fc or GST)
chain: B5 chain with P44A, S47P

EC50 (nM), cAMP expression assay [1]: 4.8 nM
B8: GLP-2 mimetibody Pro substitution variant, SEQ ID NO: 43 (Fc fusion, not shown: a dimerising Fc or GST)
chain: B5 chain with P44A, S46P

potency in the cAMP expression assay relative to the corresponding peptide (mutated human GLP-2R): ~4 fold less
B9: A2S GLP-2 IgG4 mimetibody (Fc fusion)
chain: HSDGSFSDEMNTILDNLAARDFINWLIQTKITDGSGGGSGTLVTVSSESKYGPPCPPCPAPEAAGGPSVFLFPPKPDTLMISRTPEVTCVVVDVSQEDPEVQFNWYVDGVEVHNAKTKPREEQFNSTYRVVSVLTVLHQDWLNGKEYKCKVSNKGLPSSIEKTISKAKGQPREPQVYTLPPSQEEMTKNQVSLTCLVKGFYPSDIAVEWESNGQPENNYKTTPPVLDSDGSFFLYSRLTVDKSRWQEGNVFSCSVMHEALHNHYTQKSLSLSLGK

EC50 (nM), cAMP expression assay [1]: 22.5 nM
B10: A2G GLP-2 mimetibody linker length variant, SEQ ID NO: 7 (Fc fusion, not shown: a dimerising Fc or GST)
chain: HGDGSFSDEMNTILDNLAARDFINWLIQTKITDGGGGSGGGGSCPPCP
modifications: cysteine pairing not given here; also: mimetibody: followed by CH2-CH3 domains not given here
